Test results published in patent US20110300561.

Assays:
Arg-Ala = target: T1, Arg-Ala
T1 chain: RA

Arg-Val = target: T2, Arg-Val
T2 chain: RV

Ser-His = target: T3, Ser-His
T3 chain: SH

Arg-Ile = target: T4, Arg-Ile
T4 chain: RI

Ala-Ser = target: T5, Ala-Ser
T5 chain: AS

Phe-Val = target: T6, Phe-Val
T6 chain: FV

Lys-Leu = target: T7, Lys-Leu
T7 chain: KL

Gly-Ser = target: T8, Gly-Ser
T8 chain: GS

His-Leu = target: T9, His-Leu
T9 chain: HL

Arg-Leu = target: T10, Arg-Leu
T10 chain: RL

Asp-Lys = target: T11, Asp-Lys
T11 chain: DK

Gly-Lys = target: T12, Gly-Lys
T12 chain: GK

Lys-Phe = target: T13, Lys-Phe
T13 chain: KF

B1: Staphylococcus aureus N-Succinyl-L,L-DAP Desuccinylase (DapE) (protein)
chain: MWKEKVQQYEDQIINDLKGLLAIESVRDDAKASEDAPVGPGPRKALDYMYEIAHRDGFTTHDVDHIAGRIEAGKGNDVLGILCHVDVVPAGDGWDSNPFEPVVTEDAIIARGTLDDKGPTIAAYYAIKILEDMNVDWKKRIHMIIGTDEESDWKCTDRYFKTEEMPTLGFAPDAEFPCIHGEKGITTFDLVQNKLTEDQDEPDYELITFKSGERYNMVPDHAEARVLVKENMTDVIQDFEYFLEQNHLQGDSTVDSGILVLTVEGKAVHGMDPSIGVNAGLYLLKFLASLNLDNNAQAFVAFSNRYLFNSDFGEKMGMKFHTDVMGDVTTNIGVITYDNENAGLFGINLRYPEGFEFEKAMDRFANEIQQYGFEVKLGKVQPPHYVDKNDPFVQKLVTAYRNQTNDMTEPYTIGGGTYARNLDKGVAFGAMFSDSEDLMHQKNEYITKKQLFNATSIYLEAIYSLCVEE
- Activity (S. aureus DapE Qualitative Dipeptidase Activity, TLC assay) (Arg-Ala): +++
- Activity (S. aureus DapE Qualitative Dipeptidase Activity, TLC assay) (Arg-Val): +++
- Activity (S. aureus DapE Qualitative Dipeptidase Activity, TLC assay) (Ser-His): ++
- Activity (S. aureus DapE Qualitative Dipeptidase Activity, TLC assay) (Arg-Ile): +++
- Activity (S. aureus DapE Qualitative Dipeptidase Activity, TLC assay) (Ala-Ser): +
- Activity (S. aureus DapE Qualitative Dipeptidase Activity, TLC assay) (Phe-Val): +++
- Activity (S. aureus DapE Qualitative Dipeptidase Activity, TLC assay) (Lys-Leu): ++
- Activity (S. aureus DapE Qualitative Dipeptidase Activity, TLC assay) (Gly-Ser): +
- Activity (S. aureus DapE Qualitative Dipeptidase Activity, TLC assay) (His-Leu): +
- Activity (S. aureus DapE Qualitative Dipeptidase Activity, TLC assay) (Arg-Leu): +++
- Activity (S. aureus DapE Qualitative Dipeptidase Activity, TLC assay) (Asp-Lys): +
- Activity (S. aureus DapE Qualitative Dipeptidase Activity, TLC assay) (Gly-Lys): +
- Activity (S. aureus DapE Qualitative Dipeptidase Activity, TLC assay) (Lys-Phe): ++
